Assay results published in article PMC8615095.
Where two headings read alike, the source gives them in different places.

Key:
[1] = target: membrane-bound IgE-Fc (IgE-Fc-B-cell receptor: 3xFLAG-Cε2-Cε3-Cε4-EMPD-transmembrane-intracellular domain)
[2] = target: membrane-bound IgE-Fc (IgE-Fc-B-cell receptor: 3xFLAG-Cε2-Cε3-Cε4-EMPD-transmembrane-intracellular domain); remark: listed apart in the source
[3] = target: membrane-bound IgE-Fc (IgE-Fc-B-cell receptor: 3xFLAG-Cε2-Cε3-Cε4-EMPD-transmembrane-intracellular domain); assay: flow cytometry on cells; graded concentrations of His-tagged BiTE on Ramos-Fcε (doxycycline-induced), empty-vector Ramos, Jurkat E6-1 or TIB-153 cells, 30 min on ice in 2% BSA-PBS; detected with anti-pentahis-AlexaFluor 488 (Ramos) or 647 (Jurkat, TIB-153); EC50 from geometric mean fluorescence
[4] = target: membrane-bound IgE-Fc (IgE-Fc-B-cell receptor: 3xFLAG-Cε2-Cε3-Cε4-EMPD-transmembrane-intracellular domain); remark: listed apart in the source
[5] = target: CD19 (Homo sapiens (endogenous, Ramos EHRB)) (UniProt P15391)
[6] = target: CD19 (Homo sapiens (endogenous, Ramos EHRB)) (UniProt P15391); assay: flow cytometry on cells; graded concentrations of His-tagged BiTE on Ramos-Fcε (doxycycline-induced), empty-vector Ramos, Jurkat E6-1 or TIB-153 cells, 30 min on ice in 2% BSA-PBS; detected with anti-pentahis-AlexaFluor 488 (Ramos) or 647 (Jurkat, TIB-153); EC50 from geometric mean fluorescence
[7] = target: CD19 (Homo sapiens (endogenous, Ramos EHRB)) (UniProt P15391); assay: as above; remark: listed apart in the source

Chain of CD19 (Homo sapiens (endogenous, Ramos EHRB)) (P15391 20-556): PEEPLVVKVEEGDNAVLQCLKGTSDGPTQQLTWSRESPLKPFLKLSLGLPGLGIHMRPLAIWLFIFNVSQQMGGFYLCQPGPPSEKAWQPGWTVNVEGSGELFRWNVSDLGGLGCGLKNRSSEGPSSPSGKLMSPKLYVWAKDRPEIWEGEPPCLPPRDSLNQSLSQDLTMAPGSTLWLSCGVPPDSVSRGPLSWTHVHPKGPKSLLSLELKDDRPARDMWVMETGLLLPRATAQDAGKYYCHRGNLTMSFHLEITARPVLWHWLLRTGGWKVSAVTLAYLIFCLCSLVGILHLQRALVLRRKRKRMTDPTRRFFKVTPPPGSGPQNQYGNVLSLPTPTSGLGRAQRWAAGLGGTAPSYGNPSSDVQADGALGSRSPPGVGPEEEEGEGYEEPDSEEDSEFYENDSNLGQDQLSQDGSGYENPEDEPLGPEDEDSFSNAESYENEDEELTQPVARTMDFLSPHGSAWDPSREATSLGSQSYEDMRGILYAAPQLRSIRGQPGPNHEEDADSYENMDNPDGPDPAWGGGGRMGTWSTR

IL-2 promoter-luciferase reporter in CD3-overexpressing T cells, fold activation with Ramos-Fcε target cells, E:T 2.5, at 400 pM [1] [fold]	NFAT-luciferase reporter in CD3-overexpressing T cells, fold induction with Ramos-Fcε target cells, E:T 5:1, at 80 pM [2] [fold]	EC50 [3] [nM]	Substance	also measured
2	11	2	omalizumab-based BiTE (anti-IgE scFv of omalizumab fused to anti-CD3ε scFv) (bispecific antibody)	NFAT-luciferase reporter in CD3-overexpressing T cells, fold activation with Ramos-Fcε target cells, E:T 1:1, at 80 pM [4]: 5 fold
–	–	40	quilizumab-based BiTE (anti-IgE EMPD scFv of quilizumab fused to anti-CD3ε scFv) (bispecific antibody)	–
4	9	0.4	MEDI4212-based BiTE (anti-IgE scFv of MEDI4212 fused to anti-CD3ε scFv) (bispecific antibody)	NFAT-luciferase reporter in CD3-overexpressing T cells, fold activation with Ramos-Fcε target cells, E:T 1:1, at 400 pM [4]: 10 fold
–	–	–	blinatumomab (anti-CD19 scFv fused to anti-CD3ε scFv, with C-terminal 8-His-tag) (bispecific antibody)	NFAT-luciferase reporter in CD3-overexpressing T cells with Ramos-Fcε target cells, E:T 5:1, dilutions of blinatumomab from 1 nM; EC50 of T-cell activation [5]: 0.014 nM; EC50 [6]: 5 nM; EC50 [7]: 2.5 nM
–	–	0.4	ligelizumab-based BiTE (anti-IgE scFv of ligelizumab fused to anti-CD3ε scFv) (bispecific antibody)	IL-2 promoter-luciferase reporter in CD3-overexpressing T cells, fold specific activation with Ramos-Fcε target cells, E:T 2.5, at 2 nM [1]: 7 fold; NFAT-luciferase reporter in CD3-overexpressing T cells, fold induction with Ramos-Fcε target cells, E:T 5:1, at 400 pM [2]: 47 fold; NFAT-luciferase reporter in CD3-overexpressing T cells, fold activation with Ramos-Fcε target cells, E:T 1:1, 400 pM (59-fold) to 2000 pM [4]: 162 fold
